Experimental data as given in the supplement of paper PMC9942255.
Several values for one entry are separate records, joined by “and”; a condition that tells them apart may be missing. Equal values may be shown once.

System: Bacillus subtilis DB104 (SP-AmyQ fusion secretion)
Experiment: AmyQ secretion efficiency, weighted average sort bin (1 = best secretion, 10 = worst) (bin number (weighted average, 1-10)); higher = lower secretion efficiency
Procedure, shortened: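 Occupied alginate beads were sorted by large-particle flow cytometry into 10 equally populated bins according to green/red fluorescence ratio. Each bead (~65 nL) held fluorescein-starch and about 0.3 cells of a B. subtilis DB104 library expressing mature AmyQ fused to designed signal peptides from the amyE locus, and beads were grown about 13 h at room temperature and stained with nile red before sorting. Bin amplicons were Illumina-sequenced, and the secretion score is the read-frequency-weighted average bin number, normalised to beads per bin, excluding low-abundance sequences.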

Row | Sequence | AmyQ secretion efficiency
1 | MKKLLAAGIIGLLTVSIASPSFLAEK | 5.65
2 | MTKLKMLSMLTVMIASLFIFSSQMLAVQY | 4.6
3 | MKKKQVMLALTAAAGLGLTALHSAPASVVAVAASAKAAPL | 1.02
4 | MRGKSAVLLSLIMLIAGFLIWFSFQM | 7.55
5 | MKSKWMSGLLLVAVGFSFTQVMLHAGET | 6.15
6 | MKKRTIQVMIMFTLLLTMAFSADAADS | 5
7 | MKSRTIWTIILGALLVCCKKKKRTLTKSQAGASSS | 6.52
8 | MMKKLFHSTLIVLLFFSFFGVQPIHAATR | 2.55
9 | MKKKSQQQGGVSAVVGSSMAAAPAEAKTI | 7.9
10 | MKKVLMAFIICLSLILSVLAAPPSGAKGESV | 2.46
11 | MMKKLFHSTLIVLLFFSFFGVQPIHAAKK | 1.9
12 | MKKGIIRFLLVSFVLFFALSTGITGFQAAPA | 5.1
13 | MKSKWMSGLLLVAVGFSFTQVMGHAGET | 5.88
14 | MTMLRKIRRKKLLLCIIPLFAFTVIASGKEV | 6.88
15 | MTGLKMLSMLTVMIASLFIFSSQALAVQY | 1.83
16 | MKRITINIKRRKRRAAVISLTGTAEAAEK | 7.96
17 | MLKKVILAAFILVGSTLGAFSFSSDASAARK | 2.12
18 | MKKRKRRVVLVLSIAGIGGFSVHAASS | 7.17
19 | MKKVMLATALFLGLTRRKANAADL | 7.36
20 | MKVPKTMLLSTAAGLLLSLTATSKSAHYV | 6.37
21 | MFKKHSTISLLIIFLLASAVLAKPIEAHTV | 1.86
22 | MVKKWLIQFAVMLSVLSTFTYSASAVGV | 3.04 and 1.99
23 | MKKIVSILFMFGLVMGFSQFQPSTVFAASP | 1.65
24 | MKKAAAVLLSLGLVFGFSYGAGHVREAKTK | 7.77
25 | MKSKGSIMACLILFSFTITTFINTETGSISAFSN | 5.66
26 | MKKRQIAPGLLSAASLAFFAMSGSAQAAAY | 4.58

Row | Sequence | AmyQ secretion efficiency
27 | MKKAAAVLLSLGLVFIFVFAAVHVAEAKTK | 2.59
28 | MLKRTSFVSSLFISSAVLLSILLPSGQVHAQSA | 1.69
29 | MKKKLAAGLTASAIVGTTLVEDEEDAEAATI | 6.91
30 | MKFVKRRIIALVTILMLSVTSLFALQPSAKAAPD | 2.11
31 | MKSKGSIMACLILFSFTITEISAFSN | 6.82
32 | MFKKHTISLLIIFLLASAVLAKPIEAHTD | 1.8
33 | MKRIRIPMTLALGAALTIAPLSFPSAEEN | 6.68
34 | MKKIVSILFMFGLVMKKKQFQPSTVFAADK | 7.82
35 | MKRFSTAYLLLGILCSAAVFLIPQPGRALGAEV | 2.89
36 | MKKWMITIAMLILAGIALFVFISPLKSHKT | 6.27 and 6.6 and 6.11
37 | MGSTGSIMFACLILFSFTITTFINTETISAFSN | 4.71
38 | MKRTWNTTTVCLTALLSVLLVAGSVPFHAEAKKP | 2.17
39 | MKLWMRKTLVVLFTIVTFGLVSPPAARMADKP | 2.4
40 | MKVKKSALLLLLFAFEPSASGKKL | 7.2
41 | MGMKKKLSLGVASAALGLALVGGGQWAAFN | 5.94
42 | MRKKRLLAGALTATVLFGTCAVDVPGIISPKTAEAASQ | 1.23
43 | MTKKARKLPLVCVLLISGWLAPAASASAQTT | 1.96
44 | MFKFKKNFLVGLSAALMSIKKKKRRASAAST | 7.19
45 | MLKKIALTLCPAIVGSLLFFTAPQSAHVS | 5.63
46 | MRKLWISLLFALTLIFTMAFSNMSAQAAGK | 2.67
47 | MGRIKTKITILLVLLLLLAGGYTYIN | 5.32
48 | MRPVFPYTLSAVLFLSCFFGARQTEASASKR | 2.08
49 | MNKKYFVLIVCIIFTSALFPTFSSVTLAQG | 2.52
50 | MKLSVKIAGVLTVAAAAMIAIATTAKMYATAKGN | 5.63
51 | MKKVILAAFILVGSTLGAFSFSSDASAKHV | 2.08
52 | MKRIRIPMTLALGAALTIAPLSFDSAEEN | 7.3

Row | Sequence | AmyQ secretion efficiency
53 | MSKAAAVLLSLGLVFGFSYGAGHVAEAKTK | 2.88
54 | MLKKKWMVGLLAGCLAAGGFSYNAFKTEN | 5.95
55 | MKKLLAAGIIGLLTVSIASPSFEAEK | 6.63
56 | MLTKRLLLTIYIMLLGLIAWFPGAAQAEEK | 2.22
57 | MLCVMMLLFSAIASFPVSEQAKDQ | 4.62
58 | MKVCQKSIVRFLVFLIIFLFVIGTSVPFMANAQSD | 2.68
59 | MRKRKILLSSALSLGMLVSAAPVLATSS | 2.04
60 | MKSKWMSGLLLVAVGFSFTQVMAHAGET | 7.06
61 | MKKKRKKIAGVLTVAAAAMTAKMYATAKGN | 7.67
62 | MTGGVILAAFILVGSTLGAFSFSSDASAKHV | 3.83
63 | MFKKHTISLLIIFLLASAVLAKPIECHTV | 5.04
64 | MKKAAAVLLSLGLVFVGFSYGAGHVAEAKTK | 1.71
65 | MKRFSTAYKQQRQQCSAAVFLIGAPSRALGAEV | 7.51
66 | MKSKWMSGLLLVAVGFSFTSVMVHAGET | 7.31
67 | MKKVLMAFIICLSLILSVLAAPPSGAKPESV | 4.65
68 | MRMLWRSKRRCKLALTLAPCAQAAEP | 7.06
69 | MKRIRIPMTLALGAALTIAPLSFTGFGPAGASAEEN | 3.89
70 | MKKRFSLIMMTGLLFGLTSPAFAASN | 2.36
71 | MLCVMMLLFSAIASFPVSAQIKDQ | 5.57
72 | MKKQIITATTAVVLGSTLFAGAQSAQSI | 4.07
73 | MKNMSCKLVVSVTLFFSFLTIGPLAHEQNS | 5.71
74 | MKRLFMKSMASLVLFAVVFVFAVKGAPAKAETH | 2
75 | MNIKKFAKQATVLTFTTALLAGGATQAFAATE | 1.07
76 | MKTLRTLCVLMILSGVIFFGLKYDAKDI | 5.31
77 | MRFTKVVGFLSVLGLAAVFPLTAQAEED | 1.95
78 | MPYLKRVLLLLVTGLFMSLFAVTATASDQTG | 1.01

Row | Sequence | AmyQ secretion efficiency
79 | MFKKHTISLLIIFLLASAVLAKPLEAHTV | 2.46
80 | MKKQIITATTAVVLGSTLFAGAASAQKR | 2.23
81 | MKSCKQYKRCQYSSILLLIPSVSFAADS | 7.62
82 | MKRFLIGAGVAAVILSGWFIADHQTHSQEM | 7.62 and 6.01 and 6.59
83 | MNKFLKSNRFLLAAALGISLLASSNFIKASND | 4.66
84 | MKLKSKLLLSCLALSTVFVATTIANAKRR | 7.22
85 | MKLKSKLLLSCLALSTVFVATTIANAPRR | 6.72
86 | MRRSLALCGLALTLAPCAQAAEP | 2.27
87 | MKQIMIFLTSFMLLARRRRKKALAKDV | 7.64
88 | MLKKIMNLNMMMALTLCPAIVGSLLFFTAPASAHVS | 2.77
89 | MKWMCSICCAAVLLAGGASQAEAV | 3.1
90 | MKKAFLVFLSVVLVTTVFLVKQQESVAQRKQL | 2.03
91 | MLCVMMLLFSAIASFPVSSQAKDQ | 5.36
92 | MKVCQKSIVRFLVSLIIGTFVISVPFMANAEED | 3.09
93 | MRPVFPLILSAVLFLSCFFGARQTEGSASKR | 4.92
94 | MKSKGSIMACLILFSFTITTFINTETISCFSN | 7.73
95 | MKLAKRVSALTPSTTLAITFKAKEL | 6.49
96 | MRKWYQYQGAGVLTSVILAFVYDKTKANEE | 8.25
97 | MRPVFPLILSAVLFLSCFFGARQTEASRSKR | 2.45
98 | MRSKKLWISLLFALTLIFVMAFGNMTAQAAGK | 1.9
99 | MNKFLKSNFRFLLAAALGISLLGESNPIKASND | 1.52
100 | MKKTIMSFVAVAALSTTAFGAHASAATI | 2.11
101 | MHLITAAGAVCLAVVLIAGCRFNEDQHQAEGENT | 5.34
102 | MLTFLWMVGLLAGCLAAGGFSYNAFATEN | 7.84
103 | MKKTIMSFVAVAALSTTAFGAHASFKEI | 5.37
104 | MTKKAWFLPLVCVLLISGWLAPAASISAQTT | 2.33

Row | Sequence | AmyQ secretion efficiency
105 | MKRLFMKASLVLFAVVFVFAVKGAPAKAATH | 1.71
106 | MKKGIIRFLLVSFVLFFALSTGITGVQCAPA | 6.36
107 | MKRKKIMIFLTSFMLLAMTGQTALAKDV | 3.1
108 | MKWMCSICCAAVLLAGIAIAQAEAV | 6.86
109 | MRKKLKWLSFLLGFIILLFLFFFIALIVLAKYQFSNNDS | 6.41
110 | MKSKGSIMACLILFSFTITSTVSATTFINTETISAFSN | 6.02
111 | MKKAAAVLLSLGLVFGFSYGAGHVAECKTK | 4.74
112 | MGMKKKLSLGVASAALGLALVGKKRTWAAFN | 8.1
113 | MKQGKFSVKKRKLLMLTLVVAPKEKAEAASS | 8.14
114 | MKKRKVLLSALLLLLFAFEPSASGKKL | 2.85
115 | MRGKSAVLLSLIMLIAGFLITASFPTVTGPPFSFSFQM | 8.88
116 | MFKKHTISLLIIFLLASAVLAKPIERHTV | 5.58
117 | MHLIRAKGAVCLAVVLIAGCRFNEDQHQAEGENT | 6.02
118 | MNLLFNLSMLTVMIASVFIFSSHALAAQY | 2.94
119 | MKKWTIIAVSLAIAIVLFMYTKGEAKAAGM | 2.14
120 | MKKTIMFVAVAALSTTAFGAHASAKEI | 3
121 | MMTTIFAFLTGLMMFGTITAASASPD | 4.48
122 | MKRFLIGAGVAAVILKRWFIARHQTHSQEM | 7.28
123 | MKVPKTMLLSTAAGLLLSLDPTSVSAHYV | 3.57
124 | MKKWLIIAVSLAIAIVLFMAFKGEAKAAGM | 3.57
125 | MKKAFILSAAAAVGLFTFGGVQQASVKEL | 6.39
126 | MFNRLFRVCFLAALIMAFTLPNSVYSQKP | 3.32
